The RNAGym collection of RNA variant scans (doi:10.1093/nar/gkz1192)

B1: CPEB3 Ribozyme (parent)
chain: UAACAGGGGGCCACAGCAGAAGCGUUCACGUCGCAGCCCCUGUCAGAUUCUGGUGAAUCUGCGAAUUCUGCUGUAUAUCUC

Variants of: B1
Test: self-cleavage, relative activity (ratio to wild type); higher = more cleavage; in vitro, sequencing
Summary of the method: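 For each CPEB3 ribozyme variant, relative activity is its cleaved/total read fraction divided by the unmutated ribozyme's. Barcoded error-prone PCR libraries were transcribed by T7 RNA polymerase (5 hours, 37°C) and held in DNase I for 15 min before an EDTA stop, with cleavage occurring throughout. Template-switching reverse transcription and Illumina sequencing were used to read the RNAs. A 5-read minimum applied, and results are the mean of three batches.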

Going from UAACAGGGGGCCACAGCAGAAGCGUCCACGUCGCAGCCCCUGUCAGAUUCUGGUGAAUCUGCGAAUUCUGCUGUGUAUCUC [U26C A75G] to UAACAGGGGGCCACAGCAGAAGCGUCCACGUCGCAGCCCCUGUCAGAUUCUGGUGAAUCUGCGAAUUCUGCUGUUUAUCUC [U26C A75U], the self-cleavage rises from 0.38 to 0.56.

First: UAACAGGGGGCCACAGCAGAAGCGUCCACGUCGCAGCCCCUGUCAGAUUCUGGUGAAUCUGCGAAUUCUGCUGUCUAUCUC [U26C A75C]
Second: UAACAGGGGGCCACAGCAGAAGCGUCCACGUCGCAGACCCUGUCAGAUUCUGGUGAAUCUGCGAAUUCUGCUGUAUAUCUC [U26C C37A]
The self-cleavage of the first is higher: 0.38 for the first, 0.13 for the second.

Compared with UAACAGGGGGCCACAGCAGAAGCGUCCACGUCGCAGGCCCUGUCAGAUUCUGGUGAAUCUGCGAAUUCUGCUGUAUAUCUC [U26C C37G], UAACAGGGGGCCACAGCAGAAGCGUCCACGUCGCAGUCCCUGUCAGAUUCUGGUGAAUCUGCGAAUUCUGCUGUAUAUCUC [U26C C37U] is lower in self-cleavage: 0.71 for the first, 0.32 for the second.

Going from UAACAGGGGGCCACAGCAGAAGCGUACACGUCGCAGCCCCUGUCAGAUUCUGGUGAAUCUGCGAAUUCUGCUGUAUAGCUC [U26A U78G] to UAACAGGGGGCCACAGCAGAAGCGUACACGUCGCAGCCCCUGUCAGAUUCUGGUGAAUCUGCGAAUUCUGCUGUAUAACUC [U26A U78A], the self-cleavage rises from 0.5 to 0.67.

Going from UAACAGGGGGCCACAGCAGAAGCGUACACGUCGCAGCCCCUGUCAGAUUCUGGUGAAUCUGCGAAUUCUGCUGUAUACCUC [U26A U78C] to UAACAGGGGGCCACAGCAGAAGCGUCCACGUCGCAGCCCCUGUCAGAUUAUGGUGAAUCUGCGAAUUCUGCUGUAUAUCUC [U26C C50A], the self-cleavage falls from 0.82 to 0.44.

First: UAACAGGGGGCCACAGCAGAAGCGUCCACGUCGCAGCCCCUGUCAGAUUGUGGUGAAUCUGCGAAUUCUGCUGUAUAUCUC [U26C C50G]
Second: UAACAGGGGGCCACAGCAGAAGCGUCCACGUCGCAGCCCCUGUCAGAUUUUGGUGAAUCUGCGAAUUCUGCUGUAUAUCUC [U26C C50U]
The self-cleavage of the first is lower: 0.22 for the first, 0.27 for the second.

Compared with UAACAGGGGGCCACAGCAGAAGCGUCCACGUCGCAGCCCCUGUCUGAUUCUGGUGAAUCUGCGAAUUCUGCUGUAUAUCUC [U26C A45U], UAACAGGGGGCCACAGCAGAAGCGUCCACGUCGCAGCCCCUGUCCGAUUCUGGUGAAUCUGCGAAUUCUGCUGUAUAUCUC [U26C A45C] is higher in self-cleavage: 0.26 for the first, 0.36 for the second.

Going from UAACAGGGGGCCACAGCAGAAGCGUCCACGUCGCAGCCCCUGUCGGAUUCUGGUGAAUCUGCGAAUUCUGCUGUAUAUCUC [U26C A45G] to UAACAGGGGGCCACAGCAGAAGCGUCCACGUCGCAGCCCCUGUCAGUUUCUGGUGAAUCUGCGAAUUCUGCUGUAUAUCUC [U26C A47U], the self-cleavage rises from 0.32 to 0.36.

First: UAACAGGGGGCCACAGCAGAAGCGUCCACGUCGCAGCCCCUGUCAGGUUCUGGUGAAUCUGCGAAUUCUGCUGUAUAUCUC [U26C A47G]
Second: UAACAGGGGGCCACAGCAGAAGCGUCCACGUCGCAGCCCCUGUCAGCUUCUGGUGAAUCUGCGAAUUCUGCUGUAUAUCUC [U26C A47C]
The self-cleavage of the first is higher: 0.48 for the first, 0.08 for the second.

First: UAACAGGGGGCCACAGCAGAAGCGUCCACGUCGCAGCCCCUGUCAGAUUCUGGUGAAUCUGCGAAUUCUGCUGUAUCUCUC [U26C A77C]
Second: UAACAGGGGGCCACAGCAGAAGCGUCCACGUCGCAGCCCCUGUCAGAUUCUGGUGAAUCUGCGAAUUCUGCUGUAUGUCUC [U26C A77G]
The self-cleavage of the first is lower: 0.45 for the first, 0.46 for the second.

Going from UAACAGGGGGCCACAGCAGAAGCGUCCACGUCGCAGCCCCUGUCAGAUUCUGGUGAAUCUGCGAAUUCUGCUGUAUUUCUC [U26C A77U] to UAACAGGGGGCCACAGCAGAAGCGUCCACGUCGCAGCCACUGUCAGAUUCUGGUGAAUCUGCGAAUUCUGCUGUAUAUCUC [U26C C39A], the self-cleavage falls from 0.53 to 0.33.

Going from UAACAGGGGGCCACAGCAGAAGCGUCCACGUCGCAGCCUCUGUCAGAUUCUGGUGAAUCUGCGAAUUCUGCUGUAUAUCUC [U26C C39U] to UAACAGGGGGCCACAGCAGAAGCGUACACGUCGCAGCCCCUGUCAGAUUCUGGUGAAUCUGCGAAUUCGGCUGUAUAUCUC [U26A U69G], the self-cleavage falls from 0.61 to 0.48.

First: UAACAGGGGGCCACAGCAGAAGCGUACACGUCGCAGCCCCUGUCAGAUUCUGGUGAAUCUGCGAAUUCCGCUGUAUAUCUC [U26A U69C]
Second: UAACAGGGGGCCACAGCAGAAGCGUCCAUGUCGCAGCCCCUGUCAGAUUCUGGUGAAUCUGCGAAUUCUGCUGUAUAUCUC [U26C C29U]
The self-cleavage of the first is higher: 0.4 for the first, 0.29 for the second.

Going from UAACAGGGGGCCACAGCAGAAGCGUCCAAGUCGCAGCCCCUGUCAGAUUCUGGUGAAUCUGCGAAUUCUGCUGUAUAUCUC [U26C C29A] to UAACAGGGGGCCACAGCAGAAGCGUCCAGGUCGCAGCCCCUGUCAGAUUCUGGUGAAUCUGCGAAUUCUGCUGUAUAUCUC [U26C C29G], the self-cleavage rises from 0.18 to 0.35.

Going from UAACAGGGGGCCACAGCAGAAGCGUACACGUCGCAGCCCCUGUCAGAUUCUGGUGAAUCUGCGAAUUCUGCUGUACAUCUC [U26A U76C] to UAACAGGGGGCCACAGCAGAAGCGUACACGUCGCAGCCCCUGUCAGAUUCUGGUGAAUCUGCGAAUUCUGCUGUAAAUCUC [U26A U76A], the self-cleavage rises from 0.74 to 1.02.

Compared with UAACAGGGGGCCACAGCAGAAGCGUCCCCGUCGCAGCCCCUGUCAGAUUCUGGUGAAUCUGCGAAUUCUGCUGUAUAUCUC [U26C A28C], UAACAGGGGGCCACAGCAGAAGCGUCCGCGUCGCAGCCCCUGUCAGAUUCUGGUGAAUCUGCGAAUUCUGCUGUAUAUCUC [U26C A28G] is higher in self-cleavage: 0.29 for the first, 0.31 for the second.

Going from UAACAGGGGGCCACAGCAGAAGCGUCCUCGUCGCAGCCCCUGUCAGAUUCUGGUGAAUCUGCGAAUUCUGCUGUAUAUCUC [U26C A28U] to UAACAGGGGGCCACAGCAGAAGCGUCCACGUCGCAGCCCCUGUCAGAUUCUGGUGAAUCUGCGAAUUCUGCUGUAUAUCUC [U26C], the self-cleavage rises from 0.29 to 0.5.
